# Experimental data: the RNAGym collection of RNA variant scans (doi:10.7554/elife.80360)
# B1: Twister Ribozyme (parent)
# chain: AACACUGCCAAUGCCGGUCCCAAGCCCGGAUAAAAGUGGAGGGGGCGG
# Variants of: B1
# Experiment: self-cleavage, relative activity (ratio to wild type); higher = more cleavage; co-transcriptional
row,Variant,self-cleavage
1,C8A G17C,0.0615
2,C8G A30G,0.643
3,C8G A30C,0.122
4,C8G A30U,0.409
5,C8G A35U,0.566
6,C8G A35C,0.478
7,C8G A35G,0.222
8,C8A C19G,0.0926
9,C8A G41U,0.146
10,C8A G41C,0.124
11,G7U C14G,0.0477
12,G7U C14A,0.133
13,G7U U31C,0.111
14,C8G C15G,0.062
15,C8U G38C,0.644
16,C8G U18A,0.0816
17,G7A U12A,0.441
18,C8U G29A,0.516
19,C8U G29U,0.577
20,C8U C9U,0.0747
21,C8U C9G,0.158
22,C8A G36U,0.108
23,C8G C14U,0.625
24,C8A A22C,0.45

row,Variant,self-cleavage
1,C8A A22G,0.107
2,G7C G29U,0.0704
3,C8U G28U,0.467
4,G7A G36U,0.108
5,G7A G36C,0.113
6,C8A U18G,0.0805
7,C8A U18A,0.111
8,G7A U31A,0.599
9,G7U C27U,0.079
10,G7U C27A,0.0728
11,G7C U12A,0.0478
12,G7C U12G,0.0541
13,G7U G16C,0.0533
14,G7C U31A,0.0718
15,G7C U31G,0.0544
16,G7C U31C,0.0704
17,G7U A10U,0.0807
18,G7U A10G,0.237
19,G7A G41C,0.143
20,G7A G41A,0.122
21,C8G U12G,0.676
22,G7C C14G,0.0351
23,G7C C14A,0.0617
24,C8G C9A,0.0971

row,Variant,self-cleavage
1,G7C A23C,0.0613
2,G7C A23G,0.13
3,C8U U12G,0.429
4,G7C A40G,0.0675
5,G7C G39A,0.0735
6,G7C G39U,0.058
7,C8G G39U,0.129
8,C8A G38A,0.343
9,C8A G38C,0.161
10,G7U C8U,0.0467
11,G7U C8A,0.0463
12,C8U C26A,0.117
13,C8G C20U,0.0992
14,C8A A32U,0.275
15,G7C G47A,0.0829
16,G7C G47U,0.0642
17,C8A C27G,0.0579
18,C8A C27A,0.0935
19,G7A G38U,0.168
20,C8U G41A,0.112
21,C8U G45A,0.492
22,C8U G45C,0.141
23,C8G G13A,0.405
24,C8G G13C,0.0604

row,Variant,self-cleavage
1,C8U A11U,0.973
2,C8U A11C,0.89
3,G7U G17A,0.0885
4,G7U G17C,0.0441
5,C8U G43C,0.101
6,C8U G43A,0.145
7,C8G G41U,0.129
8,C8G A40G,0.146
9,C8G G24U,0.747
10,G7U G43U,0.102
11,G7U C20U,0.0823
12,G7U C20G,0.0693
13,G7C G28C,0.0717
14,C8A G13C,0.0783
15,G7U G44C,0.0951
16,C8G U31G,0.464
17,C8A C21A,0.0745
18,C8A C21G,0.076
19,G7A U18C,0.0816
20,G7A U18G,0.066
21,G7A U18A,0.0724
22,G7U G41A,0.0662
23,G7U G41U,0.0899
24,G7C G24C,0.059

row,Variant,self-cleavage
1,G7C G24U,0.0628
2,C8A G42U,0.168
3,C8A G42A,0.141
4,C8A G42C,0.285
5,G7C C21A,0.0462
6,C8U U31C,0.713
7,G7U C19A,0.0864
8,G7A G28C,0.227
9,G7A G28A,0.215
10,C8A G16C,0.0923
11,C8A G16A,0.153
12,C8A G29A,0.327
13,C8A G29C,0.0825
14,C8A G29U,0.295
15,G7U U37G,0.0777
16,G7U U37C,0.0889
17,C8A G44C,0.276
18,C8A G44U,0.271
19,C8G C27U,0.14
20,C8G C27A,0.0513
21,G7U C46U,0.103
22,G7U C46G,0.047
23,C8A A33C,0.279
24,C8A G48A,0.215

row,Variant,self-cleavage
1,C8A G48U,0.257
2,C8A G48C,0.346
3,C8A G24A,0.18
4,C9A A11C,1.03
5,C9A A11U,0.767
6,C9A A11G,0.735
7,G7U A30G,0.163
8,G7U A34U,0.0892
9,G7C U18C,0.0305
10,G7C U18G,0.0952
11,C8A C9G,0.122
12,C8A C9U,0.0937
13,C8A C9A,0.0842
14,C9A A23U,0.066
15,C9A A23C,0.0979
16,C8G C46G,0.344
17,C8G C46A,0.231
18,C8U G44U,0.603
19,C8G G36U,0.11
20,C8G G36A,0.129
21,C8A A40U,0.2
22,C8A A40C,0.113
23,C8A A40G,0.17
24,G7U C26U,0.0446

row,Variant,self-cleavage
1,G7U A11G,0.131
2,C9A A32U,0.558
3,G7C C8A,0.0479
4,G7C G45A,0.0964
5,G7C G45C,0.0912
6,C8U A33G,0.25
7,C8U A33U,0.531
8,C8U A33C,0.447
9,C8G C25U,0.112
10,C8A C25A,0.0389
11,G7C C26U,0.0512
12,G7C A11G,0.106
13,C9A C15G,0.0772
14,G7U G48U,0.0928
15,G7U G48C,0.123
16,C8A U12G,0.213
17,C8A U12C,0.504
18,G7U G39U,0.0651
19,G7U C15U,0.101
20,G7U C15G,0.0331
21,G7U A32C,0.0917
22,C8U A30U,0.662
23,G7U G38A,0.0965
